The source of these data is paper PMC12162814.

The target of data set [1] is T1, H-NSctd WT (Salmonella enterica serovar Typhimurium, UniProt P0A1S2 85-137). In words: NMR titration.
The target in data set [2] is T1, H-NSctd WT. In words: ITC. (Isothermal titration calorimetry measures the heat released or taken up as one component is titrated into another.)
The target of the next data set is H-NSctd K107A (Salmonella enterica serovar Typhimurium, UniProt P0A1S2 85-137, K107A). The data set can be described thus: NMR titration.
The next data set concerns the target H-NSctd T115A (Salmonella enterica serovar Typhimurium, UniProt P0A1S2 85-137, T115A). The data set can be described thus: NMR titration.
Data set [3] concerns the target T1, H-NSctd WT. In words: NMR titration. This is another data set of the same source.

B1: 3AT DNA (dsDNA)
DNA 1: CGCATATATGCG
DNA 2: CGCATATATGCG
As to B1, the Kd is 6.3 ± 0.6 µM with H-NSctd WT [1]; 7.6 ± 0.5 µM with H-NSctd WT [2]; 5.3 ± 1.6 µM with H-NSctd K107A; 4.1 ± 1.2 µM with H-NSctd T115A; 1500 ± 500 nM with H-NSctd WT [3].

A word on the Kd: it is a measure of binding affinity in units of concentration. Low values mean higher affinity, high ones lower affinity.
